Data taken from patent US10184115B2, “Mutated cellobiose dehydrogenase with increased substrate specificity” (DIRECTSENS GMBH, priority 2012, dated 2019).
Positions count from the first letter of the chain named. Numbers in names are those of the source.

How the values were obtained:
[1] = substrate: OC[C@H]1OC(O)[C@H](O)[C@@H](O)[C@@H]1O; assay: Steady-state kinetics, DCIP assay: C. thermophilus CDH C310Y; format: biochemical, Corynascus thermophilus; details: other: apparent, pH 5.5, 30° C.
Protocol: (§1) Enzyme activity was assayed at 30° C. using either the DCIP (Karapetyan et al., 2005 Journal of Biotechnology 121: 34-48) or cytochrome c (Canevascini et al., 1991, European Journal of Biochemistry 198: 43-52) as electron acceptor. […] Stock solutions of carbohydrates used for kinetic measurements were prepared in the respective buffer and allowed to stand overnight for mutarotation, while stock solutions of electron acceptors were prepared in water and immediately used. The reaction stoichiometry is 1 for the two-electron acceptor DCIP (1 mole of DCIP reduced per mole of carbohydrate oxidized), but 2 for the one-electron acceptor cytochrome c. Kinetic constants were calculated by fitting the observed data to the Henri-Michaelis-Menten equation or to the adapted model for substrate inhibition using nonlinear least-squares regression and the program SigmaPlot (Systat Software, San Jose, Calif., USA).
(§2) Enzymes were purified to homogeneity in a two-step purification. The sample was loaded on a 20 mL PHE Sepharose FF column (HR26/20) equilibrated with 50 mM Na-acetate buffer pH 5.5 containing 20% ammonium sulfate. Proteins were eluted by increasing the concentration of the elution buffer (50 mM Na-acetate buffer pH 5.5) from 0 to 100% in 5 column volumes and fractions containing CDH activity were pooled. After diafiltration with a polyethersulfone flat-stack cross flow module with a cut-off of 10 kDa (Viva Flow 50, Sartorius, Göttingen, Germany) until conductivity of 5 mS cm^−1 in 20 mM Na-acetate pH 5.5 the samples were loaded on a 20 mL Q-Source column (HR26/20) equilibrated with a 20 mM Na-acetate buffer pH 5.5. CDH was eluted by increasing the concentration of the elution buffer (50 mM Na-acetate buffer pH 5.5 containing 0.5 M NaCl) from 0 to 100% in 50 column volumes. Fractions were tested for CDH activity and pooled according to the highest Reinheitszahl (RZ, calculated from the absorbance ratio 420 nm/280 nm). Purified enzymes were concentrated and diafiltered in 50 mM citrate buffer, pH 5.5, aliquoted and kept at 4° C. for further use.

[2] = substrate: OC[C@H]1O[C@H](O[C@H]2[C@H](O)[C@@H](O)C(O)O[C@@H]2CO)[C@H](O)[C@@H](O)[C@@H]1O; assay: as above; format: biochemical, Corynascus thermophilus; details: other: apparent, pH 5.5, 30° C.
Protocol: as §1, §2

[3] = substrate: OC[C@H]1O[C@H](O[C@H]2[C@H](O)[C@@H](O)C(O)O[C@@H]2CO)[C@H](O)[C@@H](O)[C@@H]1O; assay: Steady-state kinetics, DCIP assay: M. thermophilum CDH N313S; format: biochemical, Myriococcum thermophilum; details: other: apparent, pH 4.5, 30° C.
Protocol: as §1, §2

[4] = substrate: OC[C@H]1O[C@H](O[C@H]2[C@H](O)[C@@H](O)C(O)O[C@@H]2CO)[C@H](O)[C@@H](O)[C@@H]1O; assay: Steady-state kinetics, DCIP assay: M. thermophilum CDH wt; format: biochemical, Myriococcum thermophilum; details: other: apparent, pH 4.5, 30° C.
Protocol: as §1, §2

[5] = substrate: OC[C@H]1O[C@H](O[C@H]2[C@H](O)[C@@H](O)C(O)O[C@@H]2CO)[C@H](O)[C@@H](O)[C@@H]1O; assay: Steady-state kinetics, DCIP assay: M. thermophilum CDH N721D; format: biochemical, Myriococcum thermophilum; details: other: apparent, pH 4.5, 30° C.
Protocol: as §1, §2

[6] = substrate: OC[C@H]1OC(O)[C@H](O)[C@@H](O)[C@@H]1O; assay: Steady-state kinetics, DCIP assay: M. thermophilum CDH W316L; format: biochemical, Myriococcum thermophilum; details: other: apparent, pH 4.5, 30° C., ~ values only estimated by non linear regression
Protocol: (§3) Enzyme activity was assayed at 30° C. using either the DCIP (Karapetyan et al., 2005 Journal of Biotechnology 121: 34-48) or cytochrome c (Canevascini et al., 1991, European Journal of Biochemistry 198: 43-52) as electron acceptor. […] Stock solutions of carbohydrates used for kinetic measurements were prepared in the respective buffer and allowed to stand overnight for mutarotation, while stock solutions of electron acceptors were prepared in water and immediately used. The reaction stoichiometry is 1 for the two-electron acceptor DCIP (1 mole of DCIP reduced per mole of carbohydrate oxidized), but 2 for the one-electron acceptor cytochrome c. Kinetic constants were calculated by fitting the observed data to the Henri-Michaelis-Menten equation or to the adapted model for substrate inhibition using nonlinear least-squares regression and the program SigmaPlot (Systat Software, San Jose, Calif., USA). […]
(§4) Recombinant wild-type CDH as well as variants were produced in 1 L baffled flasks. […] Increase in activity was monitored using the DCIP and the cytochrome c enzyme assays. […]
(§5) Enzymes were purified to homogeneity in a two-step purification. […] Fractions were tested for CDH activity and pooled according to the highest Reinheitszahl (RZ, calculated from the absorbance ratio 420 nm/280 nm). […]

[7] = substrate: OC[C@H]1OC(O)[C@H](O)[C@@H](O)[C@@H]1O; assay: Steady-state kinetics, DCIP assay: M. thermophilum CDH R622N; format: biochemical, Myriococcum thermophilum; details: other: apparent, pH 4.5, 30° C., ~ values only estimated by non linear regression
Protocol: as §3, §4, §5

[8] = substrate: OC[C@H]1OC(O)[C@H](O)[C@@H](O)[C@@H]1O; assay: Steady-state kinetics, DCIP assay: M. thermophilum CDH W316R; format: biochemical, Myriococcum thermophilum; details: other: apparent, pH 4.5, 30° C., ~ values only estimated by non linear regression
Protocol: as §3, §4, §5

[9] = substrate: OC[C@H]1OC(O)[C@H](O)[C@@H](O)[C@@H]1O; assay: Steady-state kinetics, DCIP assay: C. thermophilus flavodehydrogenase domain C310Y; format: biochemical, Corynascus thermophilus; details: other: apparent, pH 5.5, 30° C.
Protocol: as §1
(§6) Recombinant wild-type CDH as well as variants were produced in 1 L baffled flasks. Precultures were grown overnight in 30 mL of YPD medium at 30° C. and 120 rpm. After approximately 18 hours the precultures were transferred into 1 L baffled flasks containing 200 mL BMGY medium without methanol. Induction with methanol was started immediately using a multichannel peristaltic pump (Minipuls Evolution, Gilson, Middleton, Wis., USA). Each flask was supplied eight times a day with methanol yielding a total concentration of 2% (v/v) methanol per day. Increase in activity was monitored using the DCIP and the cytochrome c enzyme assays. Cultivation was stopped at day five of methanol induction, cells removed by centrifugation (4000 rpm, 20 min) and the supernatant set to a final ammonium sulfate concentration of 20%.
as §2

[10] = substrate: OC[C@H]1O[C@H](O[C@H]2[C@H](O)[C@@H](O)C(O)O[C@@H]2CO)[C@H](O)[C@@H](O)[C@@H]1O; assay: as above; format: biochemical, Corynascus thermophilus; details: other: apparent, pH 5.5, 30° C.
Protocol: as §1, §6, §2

[11] = substrate: OC[C@H]1O[C@H](O[C@H]2[C@H](O)[C@@H](O)C(O)O[C@@H]2CO)[C@H](O)[C@@H](O)[C@@H]1O; assay: purified protein, by the assay type; details: other: apparent, wt flavodehydrogenase domain, DCIP assay, pH 5.5, 30° C.

B1: Corynascus thermophilus cellobiose dehydrogenase (CDH, SEQ ID NO: 7) variant C310Y (Thermothelomyces fergusii; C310Y) (protein)
chain: QMTEGTYTHEATGITFKTWTPSDGSTFTFGLALPGDALTNDATEYIGLLRCQITDPSSPGYCGISHGQSGQMTQALLLVAWASEDVVYTSFRYATGYTLPELYTGDAKLTQIASSVSGDSFEVLFRCENCFSWDQNGATGSVSTSNGALVLGYAASKSGLTGATCPDTAEFGFHNNGFGQWGAVLEGATSDSYEEWAQLATITPPTTCDGNGPGDKVCVPAPEDTYDYIVVGAGAGGITVADKLSEAGHKVLLIEKGPPSTGLWNGTMKPEWLEGTDLTRFDVPGLYNQIWVDSAGIACTDTDQMAGCVLGGGTAVNAGLWWKPHPADWDDNFPHGWKSSDLADATERVFSRIPGTWHPSQDGKLYRQEGFEVISQGLANAGWREVDANQEPSEKNRTYSHSVFMFSGGERGGPLATYLASAAQRSNFNLWVNTSVRRAIRTGPRVSGVELECLADGGFNGTVNLKEGGGVIFSAGAFGSAKLLLRSGIGPEDQLEIVASSKDGETFISKNDWIKLPVGHNLIDHLNTDLIITHPDVVFYDFYAAWDNPITEDKEAYLNSRSGILAQAAPNIGPLMWEEVTPSDGITRQFQWTCRVEGDSSKTNSTHAMTLSQYLGRGVVSRGRMGITSGLTTTVAEHPYLHNDGDLEAVIQGIQNVVDALSQVPDLEWVLPPPNTTVEEYVNSLIVSPANRRANHWMGTAKMGLDDGRSGGSAVVDLNTKVYGTDNLFVVDASIFPGMSTGNPSAMIVIVAEQAAQRILSLRY
Km [1]: 37.5 mM | kcat [1]: 19.67 s⁻¹ | kcat/Km [1]: 524.5 M⁻¹ s⁻¹ | Km [2]: 80.0 mM | kcat [2]: 0.95 s⁻¹ | kcat/Km [2]: 12 M⁻¹ s⁻¹

B2: Myriococcum thermophilum cellobiose dehydrogenase (CDH, SEQ ID NO: 1) variant N313S (Thermothelomyces myriococcoides; N313S) (protein)
chain: QNNVPNTFTDPDSGITFNTWGLDEDSPQTQGGFTFGVALPSDALTTDASEFIGYLKCARNDESGWCGISLGGPMTNSLLITAWPHEDTVYTSLRFATGYAMPDVYEGDAEITQVSSSVNSTHFSLIFRCKNCLQWSHGGSSGGASTSGGVLVLGWVQAFDDPGNPTCPEQITLQQHDNGMGIWGAQLNTDAASPSYTDWAAQATKTVTGDCEGPTETSVVGVPVPTGVSFDYIVVGGGAGGIPAADKLSEAGKSVLLIEKGFASTANTGGTLGPEWLEGHDLTRFDVPGLCSQIWVDSKGIACEDTDQMAGCVLGGGTAVNAGLWFKPYSLDWDYLFPDGWKYNDVQPAINRALSRIPGTDAPSTDGKRYYQEGFEVLSKGLAAGGWTSVTANNAPDKKNRTFAHAPFMFAGGERNGPLGTYFQTAKKRNNFDVWLNTSVKRVIREGGHITGVEVEPFRDGGYEGIVPVTKVTGRVILSAGTFGSAKILLRSGIGPEDQLEVVAASEKDGPTMIGNSSWINLPVGYNLDDHLNTDTVISHPDVVFYDFYEAWDDPIESDKNSYLESRTGILAQAAPNIGPMFWEEIVGADGIVRQLQWTARVEGSLGAPNGHTMTMSQYLGRGATSRGRMTITPSLTTIVSDVPYLKDPNDKEAVIQGIINLQNALQNVANLTWLFPNSTITPREYVESMVVSPSNRRSNHWMGTNKLGTDDGRKGGSAVVDLDTRVYGTDNLFVIDASIFPGVPTTNPTSYIVVAAEHASSRILALPDLEPVPKYGQCGGREWTGSFVCADGSTCEYQNEWYSQCL
Km [3]: 52 mM | kcat [3]: 1.3 s⁻¹ | kcat/Km [3]: 25 M⁻¹ s⁻¹

B3: Myriococcum thermophilum cellobiose dehydrogenase (CDH), recombinant wild type, SEQ ID NO: 1 (Thermothelomyces myriococcoides) (protein)
chain: B2 chain with S292N
Km [4]: 6.8 mM | kcat [4]: 0.32 s⁻¹ | kcat/Km [4]: 47 M⁻¹ s⁻¹

B4: Myriococcum thermophilum cellobiose dehydrogenase (CDH, SEQ ID NO: 1) variant N721D (Thermothelomyces myriococcoides; N721D) (protein)
chain: B2 chain with S292N, N700D
Km [5]: 6.1 mM | kcat [5]: 0.08 s⁻¹ | kcat/Km [5]: 13.2 M⁻¹ s⁻¹

B5: Myriococcum thermophilum cellobiose dehydrogenase (CDH, SEQ ID NO: 1) variant W316L (Thermothelomyces myriococcoides; W316L) (protein)
chain: B2 chain with S292N, W295L
kcat [6]: 9.9 s⁻¹ | kcat/Km [6]: 2.8 M⁻¹ s⁻¹

B6: Myriococcum thermophilum cellobiose dehydrogenase (CDH, SEQ ID NO: 1) variant R622N (Thermothelomyces myriococcoides; R622N) (protein)
chain: B2 chain with S292N, R601N
kcat [7]: 13.1 s⁻¹ | kcat/Km [7]: 6.0 M⁻¹ s⁻¹

B7: Myriococcum thermophilum cellobiose dehydrogenase (CDH, SEQ ID NO: 1) variant W316R (Thermothelomyces myriococcoides; W316R) (protein)
chain: B2 chain with S292N, W295R
kcat [8]: 1.2 s⁻¹ | kcat/Km [8]: 0.34 M⁻¹ s⁻¹

B8: Corynascus thermophilus CDH flavodehydrogenase domain (amino acids 249-787 of SEQ ID NO: 7) variant C310Y (C310YDH) (Thermothelomyces fergusii; C310Y) (protein)
chain: YDYIVVGAGAGGITVADKLSEAGHKVLLIEKGPPSTGLWNGTMKPEWLEGTDLTRFDVPGLYNQIWVDSAGIACTDTDQMAGCVLGGGTAVNAGLWWKPHPADWDDNFPHGWKSSDLADATERVFSRIPGTWHPSQDGKLYRQEGFEVISQGLANAGWREVDANQEPSEKNRTYSHSVFMFSGGERGGPLATYLASAAQRSNFNLWVNTSVRRAIRTGPRVSGVELECLADGGFNGTVNLKEGGGVIFSAGAFGSAKLLLRSGIGPEDQLEIVASSKDGETFISKNDWIKLPVGHNLIDHLNTDLIITHPDVVFYDFYAAWDNPITEDKEAYLNSRSGILAQAAPNIGPLMWEEVTPSDGITRQFQWTCRVEGDSSKTNSTHAMTLSQYLGRGVVSRGRMGITSGLTTTVAEHPYLHNDGDLEAVIQGIQNVVDALSQVPDLEWVLPPPNTTVEEYVNSLIVSPANRRANHWMGTAKMGLDDGRSGGSAVVDLNTKVYGTDNLFVVDASIFPGMSTGNPSAMIVIVAEQAAQRILSLRY
Km [9]: 37.1 mM | kcat [9]: 17.6 s⁻¹ | kcat/Km [9]: 474.4 M⁻¹ s⁻¹ | Km [10]: 51.86 mM | kcat [10]: 0.69 s⁻¹ | kcat/Km [10]: 13.3 M⁻¹ s⁻¹

B9: Corynascus thermophilus CDH flavodehydrogenase domain, recombinant wild type (wtDH), amino acids 249-787 of SEQ ID NO: 7 (Thermothelomyces fergusii) (protein)
chain: B8 chain with Y62C
Km [11]: 2.89 mM
